Source: patent publication US11230581B2, “Peptides and combination of peptides for use in immunotherapy against ovarian cancer and other cancers” (Immatics Biotechnologies GmbH, priority 2015, dated 2022)

The substances below were run against HLA-A*02:01 (Homo sapiens, UniProt P04439, D140Y/D185E/D98H/E176V/E277Q/G131W/G231S/I119V/I121R/I166T/I218V/L300P/L318F/N151K/N90K/P208A/P217A/Q86G/Q94H/R138H/R169H/T345S) (assay: MHC binding assay (UV-ligand exchange, β2m ELISA, peptide exchange yield)). Settings: binding of HLA-class I restricted peptides to HLA-A*02:01, UV-ligand exchange.
Procedure, shortened: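 Yield of stabilized complexes quantified via the β2m light chain in an ELISA (streptavidin capture, 100-fold diluted monomers, HRP anti-β2m 2 ug/ml at 37 °C, TMB, A450). The complexes come from UV-triggered replacement of a photocleavable ligand by the candidate peptide.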

| Peptide exchange (MHC class I binding score, peptide exchange yield) | Substance |
| --- | --- |
| “++++” (≥75% = ++++) | 460 (AMLEKNYKL; listed as Homo sapiens) [compound 460] |
| “+++” (≥50 = +++) | 272 (ALGNTVPAV; listed as Homo sapiens) [compound 272] |
| “+++” (≥50 = +++) | 263 (LLVSNLDFGV; listed as Homo sapiens) [compound 263] |
| “+++” (≥50 = +++) | 544 (LLWDVPAPSL; listed as Homo sapiens) [compound 544] |
| “++++” (≥75% = ++++) | 56 (KLYEGIPVLL; listed as Homo sapiens) [compound 56] |
| “+++” (≥50 = +++) | 113 (GLLPTPLFGV; listed as Homo sapiens) [compound 113] |
| “+++” (≥50 = +++) | 475 (LLLNEEALAQI; listed as Homo sapiens) [compound 475] |
| “+++” (≥50 = +++) | 352 (SLLELLHIYV; listed as Homo sapiens) [compound 352] |
| “+++” (≥50 = +++) | 554 (LLMPSSEDLLL; listed as Homo sapiens) [compound 554] |
| “++” (≥20% = ++) | 209 (KLIESKHEV; listed as Homo sapiens) [compound 209] |
| “+++” (≥50 = +++) | 515 (LLQELVLFL; listed as Homo sapiens) [compound 515] |
| “++” (≥20% = ++) | 229 (RLPGPLGTV; listed as Homo sapiens) [compound 229] |
| “+++” (≥50 = +++) | 201 (RLVDYLEGI; listed as Homo sapiens) [compound 201] |
| “++” (≥20% = ++) | 145 (FLATSGTLAGI; listed as Homo sapiens) [compound 145] |
| “++” (≥20% = ++) | 234 (ALMEDTGRQML; listed as Homo sapiens) [compound 234] |
| “+++” (≥50 = +++) | 357 (SMHDLVLQV; listed as Homo sapiens) [compound 357] |
| “+++” (≥50 = +++) | 324 (FLYDEIEAEV; listed as Homo sapiens) [compound 324] |
| “+++” (≥50 = +++) | 498 (KLWTGGLDNTV; listed as Homo sapiens) [compound 498] |
| “++++” (≥75% = ++++) | 109 (IILSILEQA; listed as Homo sapiens) [compound 109] |
| “++” (≥20% = ++) | 513 (SLWPSPEQL; listed as Homo sapiens) [compound 513] |
| “++++” (≥75% = ++++) | 305 (SIANFSEFYV; listed as Homo sapiens) [compound 305] |
| “++” (≥20% = ++) | 253 (GLDAATATV; listed as Homo sapiens) [compound 253] |

| Peptide exchange (MHC class I binding score, peptide exchange yield) | Substance |
| --- | --- |
| “++” (≥20% = ++) | 376 (AMFESSQNVLL; listed as Homo sapiens) [compound 376] |
| “+++” (≥50 = +++) | 426 (RLADKSVLV; listed as Homo sapiens) [compound 426] |
| “+++” (≥50 = +++) | 83 (ILAPTVMMI; listed as Homo sapiens) [compound 83] |
| “+++” (≥50 = +++) | 54 (SLLEQGKEPWMV; listed as Homo sapiens) [compound 54] |
| “+++” (≥50 = +++) | 307 (ALPVSLPQI; listed as Homo sapiens) [compound 307] |
| “+++” (≥50 = +++) | 252 (LLIGTDVSL; listed as Homo sapiens) [compound 252] |
| “+++” (≥50 = +++) | 38 (FLLEDDIHVS; listed as Homo sapiens) [compound 38] |
| “++” (≥20% = ++) | 393 (GLLDTQTSQVLTA; listed as Homo sapiens) [compound 393] |
| “++++” (≥75% = ++++) | 159 (GLVGNPLPSV; listed as Homo sapiens) [compound 159] |
| “+++” (≥50 = +++) | 446 (QLIPALAKV; listed as Homo sapiens) [compound 446] |
| “++” (≥20% = ++) | 99 (ALVSKGLATV; listed as Homo sapiens) [compound 99] |
| “+++” (≥50 = +++) | 542 (RVWDISTVSSV; listed as Homo sapiens) [compound 542] |
| “+++” (≥50 = +++) | 508 (ILAQEQLVVGV; listed as Homo sapiens) [compound 508] |
| “++” (≥20% = ++) | 523 (YQIPRTFTL; listed as Homo sapiens) [compound 523] |
| “+++” (≥50 = +++) | 85 (KMSELRVTL; listed as Homo sapiens) [compound 85] |
| “+++” (≥50 = +++) | 30 (LILDWVPYI; listed as Homo sapiens) [compound 30] |
| “+++” (≥50 = +++) | 5 (HLTEVYPEL; listed as Homo sapiens) [compound 5] |
| “+++” (≥50 = +++) | 219 (KLSDIGITV; listed as Homo sapiens) [compound 219] |
| “+++” (≥50 = +++) | 134 (YLQELIFSV; listed as Homo sapiens) [compound 134] |
| “+++” (≥50 = +++) | 22 (IMEENPGIFAV; listed as Homo sapiens) [compound 22] |
| “+++” (≥50 = +++) | 147 (SLLEAVSFL; listed as Homo sapiens) [compound 147] |
| “++++” (≥75% = ++++) | 568 (TLYDIAHTPGV; listed as Homo sapiens) [compound 568] |

| Peptide exchange (MHC class I binding score, peptide exchange yield) | Substance |
| --- | --- |
| “+++” (≥50 = +++) | 378 (ALGYFVPYV; listed as Homo sapiens) [compound 378] |
| “+++” (≥50 = +++) | 364 (LLQNEQFEL; listed as Homo sapiens) [compound 364] |
| “+++” (≥50 = +++) | 549 (AMLENASDIKL; listed as Homo sapiens) [compound 549] |
| “+++” (≥50 = +++) | 88 (FLLVGDLMAV; listed as Homo sapiens) [compound 88] |
| “+++” (≥50 = +++) | 488 (FLAEDPKVTL; listed as Homo sapiens) [compound 488] |
| “+++” (≥50 = +++) | 254 (TLLAFIMEL; listed as Homo sapiens) [compound 254] |
| “+++” (≥50 = +++) | 200 (LLFGSVQEV; listed as Homo sapiens) [compound 200] |
| “+++” (≥50 = +++) | 497 (GLLEKLTAI; listed as Homo sapiens) [compound 497] |
| “+++” (≥50 = +++) | 450 (FMIDASVHPTL; listed as Homo sapiens) [compound 450] |
| “++++” (≥75% = ++++) | 55 (SLLDLETLSL; listed as Homo sapiens) [compound 55] |
| “++” (≥20% = ++) | 522 (TLWYRSPEV; listed as Homo sapiens) [compound 522] |
| “+++” (≥50 = +++) | 208 (KISPVTFSV; listed as Homo sapiens) [compound 208] |
| “++” (≥20% = ++) | 273 (NLFQSVREV; listed as Homo sapiens) [compound 273] |
| “+++” (≥50 = +++) | 530 (VMYADIGGMDI; listed as Homo sapiens) [compound 530] |
| “+++” (≥50 = +++) | 384 (ILFANPNIFV; listed as Homo sapiens) [compound 384] |
| “++++” (≥75% = ++++) | 8 (FTLGNVVGMYL; listed as Homo sapiens) [compound 8] |
| “+++” (≥50 = +++) | 617 (ALMYESEKVGV; listed as Homo sapiens) [compound 617] |
| “+++” (≥50 = +++) | 454 (KLPPPPPQA; listed as Homo sapiens) [compound 454] |
| “++” (≥20% = ++) | 374 (FLLQQHLISA; listed as Homo sapiens) [compound 374] |
| “++” (≥20% = ++) | 402 (VLFSGALLGL; listed as Homo sapiens) [compound 402] |
| “+++” (≥50 = +++) | 248 (FLFPNQYVDV; listed as Homo sapiens) [compound 248] |
| “+++” (≥50 = +++) | 502 (RLLAQVPGL; listed as Homo sapiens) [compound 502] |
